The assay addresses Mg-ATP actin (15% Alexa 488-labeled), assembled into actin filaments (F-actin) (not stated (chicken or rabbit skeletal muscle)) (UniProt P68135). The assay is described as follows: TIRF microscopy; two-color TIRFM of 1.5 μM Mg-ATP actin (15% Alexa 488) assembling with Cy5-labeled Cdc8 at 1 μM and above; 10 mM imidazole pH 7.0, 50 mM KCl, 1 mM MgCl2, 1 mM EGTA, 0.5% methylcellulose, room temperature.

The record followed here is paper PMC5404920.

On to “tropomyosin AlaSer-Cdc8 D142C, Cy5-labeled (natural protein)”, for which the percent of actin filaments associated with tropomyosin stood at 100%.
Substance “tropomyosin AlaSer-Cdc8 I76C, Cy5-labeled (natural protein)” displayed a kon per unit filament length of the first observed Cdc8 binding (random-binding model fitted to the TIRFM data) of 4e-06 s⁻¹ nm⁻¹; a percent of F-actin coated at 2 μM Cdc8 and higher of 98%; a percent of actin filament sites coated at 1.25 μM Cdc8 of 40%; a percent of actin filaments associated with tropomyosin of 100%. The same substance came in with a percent of total actin filament coverage at 1 μM Cdc8 of 2%, a spreading rate of Cdc8 toward the barbed end (Cdc8 molecules sec^-1 μM^-1) of 3.2 and a spreading rate of Cdc8 toward the pointed end (Cdc8 molecules sec^-1 μM^-1) of 2.4.
